Assay results taken from paper PMC13064845 (2025).

Biological target: thrombospondin-1 (TSP1), immobilised in the Biacore analysis (UniProt P35441 19-1170)
Test: SPR

Chain of thrombospondin-1 (TSP1), immobilised in the Biacore analysis (P35441 19-1170): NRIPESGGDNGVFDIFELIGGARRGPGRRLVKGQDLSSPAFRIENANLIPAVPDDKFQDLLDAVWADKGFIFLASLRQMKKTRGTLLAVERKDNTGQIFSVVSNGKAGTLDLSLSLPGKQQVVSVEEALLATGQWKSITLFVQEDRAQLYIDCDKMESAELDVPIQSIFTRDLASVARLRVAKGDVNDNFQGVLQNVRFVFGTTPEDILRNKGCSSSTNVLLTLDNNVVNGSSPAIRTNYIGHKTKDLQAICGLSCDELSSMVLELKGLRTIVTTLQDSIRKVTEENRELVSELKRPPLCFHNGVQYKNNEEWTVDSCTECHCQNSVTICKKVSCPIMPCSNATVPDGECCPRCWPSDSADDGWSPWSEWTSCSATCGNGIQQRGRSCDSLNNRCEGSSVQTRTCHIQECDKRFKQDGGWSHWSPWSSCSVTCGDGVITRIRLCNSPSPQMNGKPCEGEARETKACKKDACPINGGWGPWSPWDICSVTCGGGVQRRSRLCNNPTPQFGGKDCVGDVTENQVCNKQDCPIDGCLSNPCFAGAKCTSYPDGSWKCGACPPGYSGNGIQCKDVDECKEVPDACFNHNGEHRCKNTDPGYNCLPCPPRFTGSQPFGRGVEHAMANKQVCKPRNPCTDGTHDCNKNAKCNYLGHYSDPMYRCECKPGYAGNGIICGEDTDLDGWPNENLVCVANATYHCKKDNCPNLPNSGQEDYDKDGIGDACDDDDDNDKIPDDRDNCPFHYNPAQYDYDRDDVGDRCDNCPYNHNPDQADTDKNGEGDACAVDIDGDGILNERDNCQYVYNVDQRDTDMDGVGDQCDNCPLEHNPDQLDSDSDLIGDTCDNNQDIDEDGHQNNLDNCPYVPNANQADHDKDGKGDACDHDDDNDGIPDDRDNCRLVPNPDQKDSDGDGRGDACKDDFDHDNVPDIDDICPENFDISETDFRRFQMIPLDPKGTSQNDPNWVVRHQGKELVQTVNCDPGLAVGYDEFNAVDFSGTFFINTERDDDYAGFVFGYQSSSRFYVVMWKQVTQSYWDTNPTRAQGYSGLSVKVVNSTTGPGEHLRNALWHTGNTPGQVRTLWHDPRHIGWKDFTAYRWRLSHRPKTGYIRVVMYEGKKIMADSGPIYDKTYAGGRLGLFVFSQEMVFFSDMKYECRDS

B1: fibulin-7 (FBLN7), analyte of the Biacore analysis (natural protein)
chain: QSCLNKQQLLTTIRQLQQLLKGQETRFTEGIRNMKSRLAALQNTVNKMTPDAPPVSCPALEAPPDGKKFGSKYLVDHEVYFTCNPGFQLVGPSSVVCLANGSWTGEQPRCRDISECSSQPCHNGGTCVEGINHYRCICPPGKTGNRCQHQTQAAAPDGGEAGDPAFSRAPRCAQVEREQHCSCEAGFHLSSTTGGHSVCQDVNECEIYGQKGRPRLCMHACVNTPGSYRCTCPSGYRILADGKSCEDVDECAGPQHMCPRGTTCINTGGGFQCVNPECPEGSGNISYVKTSPFQCERNPCPMDSRPCRHLPKTISFHYLSLPSKLKTPITLFRMATASIPGHPGPNSLRFGIVGGNSRGHFVMQRSDRQTGELILTQTLEGPQTLEVDVDMSEYLERSFQANHVSKVTIFVSRYDF
Kd: 29.9 nM
